# Data published in PMC12057046 (2025).
# B1: GST-tagged USP8 MIT domain (1-142) [human] / DBP 116-131 peptide, cellulose-bound (SPOT array) [human] (parent complex)
# chain 1: MPAVASVPKELYLSSSLKDLNKKTEVKPEKISTKSYVHSALKIFKTAEECRLDRDEERAYVLYMKYVTVYNLIKKRPDFKQQQDYFHSILGPGNIKKAVEEAERLSESLKLRYEEAEVRKKLEEKDRQEEAQRLQQKRQETG
# chain 2: YVDLDAFLLEHGLPPS
# B2: GST-tagged USP8 MIT domain (1-142) [human] / Girdin 1192-1207 peptide, cellulose-bound (SPOT array) [human] (parent complex)
# chain 1: B1 chain 1
# chain 2: EVEHRDLEDRYNQLLK
# B3: GST-tagged USP8 MIT domain (1-142) [human] / DNAJB6 118-130 peptide, cellulose-bound (SPOT array) [not stated] (parent complex)
# chain 1: B1 chain 1
# chain 2: PFEDFFGNRRGPR
# B4: GST-tagged USP8 MIT domain (1-142) [human] / Cadherin-1 863-877 peptide, cellulose-bound (SPOT array) [not stated] (parent complex)
# chain 1: B1 chain 1
# chain 2: NEWGNRFKKLADMYG
# Variants of: B1
# Test: SPOT array alanine scanning; read off a plot
row,screen value,Variant
1,~-52%,chain 2 YVDADAFLLEHGLPPS
2,~-84%,chain 2 YVALDAFLLEHGLPPS
3,~-79%,chain 2 YVDLDAFLLEAGLPPS
4,~-22%,chain 2 YVDLDAFLLEHGAPPS
5,~19%,chain 2 YVDLDAFLLEHGLPAS
6,~-94%,chain 2 YVDLDAFLLAHGLPPS
7,~98%,chain 2 YVDLDAFLAEHGLPPS
8,~98%,chain 2 YADLDAFLLEHGLPPS
9,~12%,chain 2 YVDLDAFLLEHGLPPA
10,~-38%,chain 2 YVDLDGFLLEHGLPPS
11,~-87%,chain 2 YVDLDAFLLEHALPPS
12,~-100%,chain 2 YVDLAAFLLEHGLPPS
13,~-5%,chain 2 YVDLDAFLLEHGLAPS
14,~-20%,chain 2 YVDLDAFALEHGLPPS
15,~-72%,chain 2 YVDLDAALLEHGLPPS
16,~110%,chain 2 AVDLDAFLLEHGLPPS

# Variants of: B2
# Test: SPOT array alanine scanning; read off a plot
row,screen value,Variant
1,~120%,chain 2 EVEHRDLEDRYNQLLA
2,~-94%,chain 2 EVEHRDLEDRYNQALK
3,~65%,chain 2 EVEARDLEDRYNQLLK
4,~28%,chain 2 EVEHRDLEDRYNALLK
5,~-100%,chain 2 EVEHRDAEDRYNQLLK
6,~-92%,chain 2 EVEHRDLEDAYNQLLK
7,~-72%,chain 2 EVEHRDLADRYNQLLK
8,~50%,chain 2 AVEHRDLEDRYNQLLK
9,~58%,chain 2 EVEHRDLEARYNQLLK
10,~69%,chain 2 EAEHRDLEDRYNQLLK
11,~80%,chain 2 EVAHRDLEDRYNQLLK
12,~-100%,chain 2 EVEHRDLEDRANQLLK
13,~40%,chain 2 EVEHRALEDRYNQLLK
14,~48%,chain 2 EVEHADLEDRYNQLLK
15,~-37%,chain 2 EVEHRDLEDRYAQLLK
16,~-81%,chain 2 EVEHRDLEDRYNQLAK

# Variants of: B3
# Test: SPOT array alanine scanning; read off a plot
row,screen value,Variant
1,~-63%,chain 2 PFEDAFGNRRGPR
2,~-17%,chain 2 PFEDFFGNRRGAR
3,~-46%,chain 2 PFADFFGNRRGPR
4,~-88%,chain 2 PFEAFFGNRRGPR
5,~20%,chain 2 PFEDFFGNRRGPA
6,~-39%,chain 2 PFEDFFGNRRAPR
7,~-29%,chain 2 PFEDFFGNRAGPR
8,~10%,chain 2 PAEDFFGNRRGPR
9,~-48%,chain 2 PFEDFFGARRGPR
10,~-67%,chain 2 PFEDFAGNRRGPR
11,~30%,chain 2 AFEDFFGNRRGPR
12,~-19%,chain 2 PFEDFFGNARGPR
13,~-40%,chain 2 PFEDFFANRRGPR

# Variants of: B4
# Test: SPOT array alanine scanning; read off a plot
row,screen value,Variant
1,~-70%,chain 2 NEWGNRFKALADMYG
2,~-39%,chain 2 NEWANRFKKLADMYG
3,~-62%,chain 2 NEWGNRFKKAADMYG
4,~-34%,chain 2 NEWGARFKKLADMYG
5,~-57%,chain 2 NEWGNRFKKLADMYA
6,~-65%,chain 2 NEWGNRFAKLADMYG
7,~-44%,chain 2 NEWGNRFKKLADMAG
8,~-9%,chain 2 AEWGNRFKKLADMYG
9,~-56%,chain 2 NEWGNRFKKLAAMYG
10,~-100%,chain 2 NEWGNRAKKLADMYG
11,~-32%,chain 2 NEWGNRFKKLGDMYG
12,~-100%,chain 2 NEAGNRFKKLADMYG
13,~-22%,chain 2 NEWGNRFKKLADAYG
14,~-57%,chain 2 NAWGNRFKKLADMYG
15,~-98%,chain 2 NEWGNAFKKLADMYG
